The target of assay [1] is T1, apo-Anamorsin (cytokine induced apoptosis inhibitor-1), biotinylated (human, UniProt Q6FI81 1-312, biotin (EZ-Link Sulfo-NHS-LC-biotin, 2:1 molar ratio of reagent to protein)).
T1 construct: Anamorsin (CIAPIN-1), human cDNA (Abgent) subcloned into pET28-a(+) between NdeI and XhoI; Without clusters; The vector adds a 6x his-tag and a thrombin cleavage site at the N-terminus; no cleavage is described; also called CIAPIN-1; source: E. coli BL-21 Codon Plus (DE3) RIL, purified (Ni-NTA, HiTrap Q anion exchange); 2Fe-2S cluster removed by the method of Kennedy and Beinert
Description: BLI; Octet Red96; biotinylated apo-Anamorsin (3.5 uM) immobilised on streptavidin biosensors; holo-NEET in solution; 50 mM bis-tris, 100 mM NaCl, 0.1% Tween 20, 0.5 mg/ml BSA, pH 7.0, without DTT; association 900 s, dissociation 1800 s; 1:1 model. The conditions noted are these: both partners purified.

Assay [2] has as its target T2, holo-Anamorsin (prepared via cluster transfer from NAF-1), biotinylated (human, UniProt Q6FI81 1-312, biotin).
T2 construct: Anamorsin (CIAPIN-1), human cDNA (Abgent) subcloned into pET28-a(+) between NdeI and XhoI; same chain as m3; also called post-cluster transfer Anamorsin; CIAPIN-1; source: E. coli BL-21 Codon Plus (DE3) RIL, purified; apo form loaded by cluster transfer from NAF-1, then purified from NAF-1 on HiTrap Q anion exchange
Briefly: BLI; biotinylated holo-Anamorsin (prepared via cluster transfer) immobilised on streptavidin biosensors; 16 uM holo-NAF-1 or 32 uM holo-mNT; association 900 s, dissociation 1800 s; 2:1 heterogeneous ligand model; average of two trials. The conditions noted are these: both partners purified. A general note: Biolayer interferometry detects binding as a change in optical thickness at a sensor tip.

Experimental findings from publication PMC4598119, “Cancer-Related NEET Proteins Transfer 2Fe-2S Clusters to Anamorsin, a Protein Required for Cytosolic Iron-Sulfur Cluster Biogenesis” (PLoS ONE, 2015) are described below.

T1 sequence (Q6FI81 whole entry): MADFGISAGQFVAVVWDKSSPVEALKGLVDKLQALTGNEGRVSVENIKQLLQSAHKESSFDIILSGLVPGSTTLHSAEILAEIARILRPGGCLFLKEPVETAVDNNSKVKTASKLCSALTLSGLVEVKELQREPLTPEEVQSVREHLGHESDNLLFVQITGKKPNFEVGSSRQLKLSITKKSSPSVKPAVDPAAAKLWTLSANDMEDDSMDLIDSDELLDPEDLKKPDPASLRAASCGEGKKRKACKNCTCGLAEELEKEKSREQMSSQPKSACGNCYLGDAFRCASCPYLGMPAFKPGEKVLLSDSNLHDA
T2 sequence (Q6FI81 whole entry): as above

B1: nutrient-deprivation autophagy factor-1 (NAF-1), soluble domain (residues 57-135), holo (domain or fragment, human, UniProt Q8N5K1 57-135, looked up)
chain: RPFLPKKKQQKDSLINLKIQKENPKVVNEINIEDLCLTKAAYCRCWRSKTFPACDGSHNKHNELTGDNVGPLILKKKEV
notes: NAF-1 (CISD2), human, soluble domain, residues 57-135; Homodimer; each protomer holds one 2Fe-2S cluster (3Cys:1His); at least 98% cluster occupancy; also called holo-NAF-1; miner1; source: expressed and purified as described previously [19, 23]
As a reminder, the koff is a measure of how fast the partners let go of each other. As a reminder, the kon is a measure of how fast the partners come together. B1: in assay [1], the off-rate (koff) was 0.0011 s⁻¹ and the kon turned out to be 783 M⁻¹ s⁻¹.

B2: mitoNEET (mNT), soluble domain (residues 33-108), holo (domain or fragment, human, UniProt Q9NZ45 33-108, looked up)
chain: RFYVKDHRNKAMINLHIQKDNPKIVHAFDMEDLGDKAVYCRCWRSKKFPFCDGAHTKHNEETGDNVGPLIIKKKET
notes: mitoNEET (CISD1), human, soluble domain, residues 33-108; Homodimer; each protomer holds one 2Fe-2S cluster (3Cys:1His); at least 98% cluster occupancy; also called holo-mNT; CISD1; source: expressed and purified as described previously [19, 23]
Regarding B2, in assay [1], the koff was determined as 6.17e-05 s⁻¹ and the kon was found to be 317 M⁻¹ s⁻¹. Also, the “fold change of koff against apo-Anamorsin” value in assay [2] was determined as 50 fold.
